The source of these data is publication doi:10.1101/2023.10.13.562012.

A word on the stoichiometry N: it is a count of units in the complex or per binding partner.

Common to all, as to test: cryo-EM structure
For assay [1], the target named is tonoplast intrinsic protein TIP1;1 (spinach (endogenous in leaves)).
Assay [2] deals with tonoplast intrinsic protein TIP2;1 (spinach (endogenous in leaves)).
The target in assay [3] is LHC-II complex (spinach (endogenous in leaves)).
Assay [4] has as its target Rubisco (spinach (endogenous in leaves)).
For assay [5], the target named is chloroplast carbonic anhydrase (CA) (spinach (endogenous in leaves)).

Take “tonoplast intrinsic protein TIP1;1 (natural protein)”: the figures for the stoichiometry N in assay [1] and in assay [2] were 4 and 3, respectively.
On to LHC-II complex (natural protein), for which the stoichiometry N in assay [3] turned out to be 3.
In turn, Rubisco (complex) yielded a stoichiometry N in assay [4] of 8.
In turn, “chloroplast carbonic anhydrase (CA) (enzyme)” had a stoichiometry N in assay [5] of 8.
